This note sets out measurements from paper PMC7204071, “The model cyanobacteria Anabaena sp. PCC 7120 possess an intact but partially degenerated gene cluster encoding gas vesicles” (BMC Microbiology, 2020).

Substrate in the data set: Nc1ncnc2c1ncn2[C@@H]1O[C@H](COP(=O)(O)OP(=O)(O)OP(=O)(O)O)[C@@H](O)[C@H]1O
In words: ATP/NADH coupled assay (pyruvate kinase / lactate dehydrogenase), A340, Hanes-Woolf plot. It is filed as biochemical, Nostoc sp. PCC 7120 = FACHB-418. The following applies: 50 mM Tris-HCl pH 8.0, 20 mM KCl, 5 mM MgCl2, 25 °C, 50 μg GvpN in assay, methods state NADH (40 to 200 μM), not ATP, was varied.

B1: GvpN (Nostoc sp. PCC 7120 = FACHB-418) (protein)
chain: MTLTANNKKRAVLRVRPGQFVVTPAIEQVAIRALRYLTSGFAIHLRGPAGTGKTTLAMHLANCLDRPIMLIFGDDEFKSSDLIGSESGYTHKKLLDNYIHSVLKVEDEFKQNWVDSRLTLACREGFTLVYDEFNRSRPEVNNVLLSALEEKILTLPPSSNQPEYLHVNPQFRAIFTSNPEEYCGVHSTQDALMDRLVTINMPEPDELTQTEILAQKTALNRADALLIVRLVKAFRSRTGGEKTSGLRSCLMIAKVCAEHNILVSPQSSDFREICADVLFNRTNWSASEAATIFLELLNHLDLQQIEEFKNSIIPEDTDAIAEGGFPTIIDSHFGTLDSEVLEQPGVEDSIPFEQEIYLYLQQYKSAALALVQQEFELSRTVATNALNSLEQKGLVSKNNHVYTIEEPNQS
notes: recombinant, C-terminal 6xHis tag (modified pET-29a, same manner as GvpF), E. coli BL21(DE3), Ni-NTA and Superdex 200; N-terminal AAA domain
For the protein B1, the Km turned out to be 3.9 ± 1.5 µM and the kcat was determined as 35 ± 2 s⁻¹.
